From the DeepSol protein solubility set

Experiment: soluble on expression in E. coli; label from the status in PepcDB or PDB records

Row | Sequence | soluble on expression in E. coli
1 | MPKLHMFYLGGNAGRSNIEVHDIQFAVCDNYREAVPALKAAWFGDADKIHIDGWQIVEWADGYDIAVSETPKTKMPSEHAPRLYFANVGGYRAGQLAEAHAFGLFAAATPAEAKQKALQTLLTDSYVQQHKDNLKDVDNLLALDRIGNFHIRLTPNPHGKPAEIGFQGYLPI | not soluble
2 | MKYILVTGGVISGIGKGIIASSIGTILKSCGLRVTAIKIDPYINIDAGTFSPYEHGEVFVLNDGGEVDLDLGNYERFLDINLYKDNNITTGKIYQHVINKERRGDYLGKTVQVVPHITDAVQEWVMNQAKVPVDGNKEEPQICVIELGGTIGDIEGMPFVEAFRQFQFKAKRENFCNIHVSLVPQLSATGEQKTKPTQNSVRALRGLGLSPDLIVCRSSTPIEMAVKEKISMFCHVNPEQVICIHDVSSTYRVPVLLEEQSIVKYFKERLHLPIGAHHHHHH | soluble
3 | MQGLYIYGEVGRGKTMLMDLFFSCLPQKRKKRAHFNDFMADVHERINIYRQASKDGKTGQKTPILAVVEDLAQEAQVLCFDEFSVTDIADAMVLGRLISALFDKGIFFVATSNVAPDNLYYNGLEHHHHHH | not soluble
4 | GGHTVPKPFNLSKGKRKHEEASDYVSTAEQVIAFYKRTPARYHLRSRQREMEGPSPVKMIKTKLTNPKTPLLQTKGRHRPV | soluble
5 | MAHHHHHHMNFLRRNAANLCKGKVLGKHLNCSVHELTNLNKRKISNITDLGKCGQRYQATHSGSTIGAKRFASSEAQKLSEVVKAEVQHEKSNYEAPDNIKKFLQTSGWKFEEQEGDVNMVLTKNVDGMKIIIDFQLVSPFQAEGENEAQAEMTDFSVTVEKPNKQGGITFYCTTLQNDEKFRYMIGNVKYYKNEEGKNSVSAYNGPEFEDLDDSLQTSLDEWLANLGVDSELCDFIDSCSIDKEQREYMSWLQNISNFIES | not soluble
6 | MGSDKIHHHHHHMYQELPPLPWLRAFDASARLGNFTLAAQELGLTPSAVSYQVRGLEATLGHKLFVRKQKSLFLTRLGQAYLPVVSKAFGDLEATTSNLFGKSAAQEITLRCLSSLNMLWLAPRLSRFQAQHPDCRLRVLSALWGETPEALQIDIDIRYGNGSWSDGEVTRLMHHEVLAVCAPALHPGPDPQAIASCPLIEVIGVTDTWHHFFALHGLAPPSSGPALKVDQSLIALELATRGMGVALIARVFAQRYLESGALVEATDLALPAREGHYIVQPEARNHFRPEVAALKDWLLQEAAQTGC | not soluble
7 | MSLTNKKNLRVVALAPTGRYFASIISSLEILETAAEFAEFQGFMTHVVTPNNRPLIGRGGISVQPTAQWQSFDFTNILIIGSIGDPLESLDNIDPALFDWIRELHLKGSKIVAIDTGIFVVAKAGLLQQNKAVMHSYFAHLFGELFPEIMLMTEQKALIDGNVYLSSGPYSHSSVMLEIVEEYFGKHTRNLGNQFLSTIESSGNSHSYCDVFRYMQHRDELILKIQKWILTTDLDIVSISDLANEACLSERQLKRRFKEATSISPLKFIQLGRLSFAKELLRSTKLSIDEVASRSGYVDTQFFRQIFKRENDCSPLEYRKRNQVKAEGHHHHHH | soluble
8 | GGSGSDIEAYFERIGYKNSRNKLDLETLTDILEHQIRAVPFENLNMHCGQAMELGLEAIFDHIVRRNRGGWCLQVNQLLYWALTTIGFQTTMLGGYFYIPPVNKYSTGMVHLLLQVTIDGRNYIVDAGSGSSSQMWQPLELISGKDQPQVPCIFCLTEERGIWYLDQIRREQYITNKEFLNSHLLPKKKHQKIYLFTLEPRTIEDFESMNTYLQTSPTSSFITTSFCSLQTPEGVYCLVGFILTYRKFNYKDNTDLVEFKTLTEEEVEEVLKNIFKISLGRNLVPKPGDGSLTI | soluble
9 | MSLLNKEALVNRLNASAKRQKADIVIKNGKIMDVYNQEWIYEDIAITDGVIVGLGEYEGENIIDAEGQMIVPGFIDGHVHIESSMVTPIEFAKAVLPHGVTTVVTDPHEIANVSGEKGIEFMLEQARHTPLNIHFMLPSSVPAASFERSGAILKAADLKPFYEEEEVLGLAEVMDYVSVQQAEKDMVQKLLDARVAGKRIDGHLAGLSTDLINIYRTAFVLNDHEVTSKEEALDRIRRGMYVMMREGSVAKNTLNVLPAVNEKNARRFFFCTDDKHVDDLLSEGSVNHQVKMAIQAGLNPFLAYQLGSLNAAECYGLDTKGAIAPGFDADLLFVSDLENVTVTMAMVKGQTVAEDSKAVYQDHASTAAPDQALLDSVKLAAPLNKQDFHMPIDSEQQINVIQIIPNQLETRLVQVPAPVAREFEPDTELDLLKIAVVERHKGLKETGLGVVKGFGFKSGAIATTISHDSHNIIAVGTNDEDIAAAVNKLQEIGGGLTIIKNGEELHSVPLPIAGLLSDQSAEQVNQSLLTLHDKLSLIGFTGGFNPFLTLSFLALPVIPDIKMTTTGLFDVKSFQHISLQEGHHHHHH | soluble
10 | MGHHHHHHSHMWKDFIDHISSLLHSVEVEVSYFAAGIIAHLISRGEQAWTLSRSQRNSLLDDLHSAILKWPTPECEMVAYRSFNPFFPLLGCFTTPGVQLWAVCAMQHVCSKNPSRYCSMLIEEGGLQHLYNIKDHEHTDPHVQQIAVAILDSLEKHIVRHGRPPPCKKQPQARLN | not soluble
11 | MSLKLVTFDLDDTLWDTAPAIAGAEVTLRDWLAEHAPKLGAIPVEHLWEIRSRLVAEDPSFKHRISALRRRVLFHALEDAGYDPDEAQDLADRGFEVFLHGRHQVQIFPEVQPMLEILAKTFTLGVITNGNADVRRLGLADYFAFALCAEDLGIGKPDPAPFVEALRRAKVDASAAVHVGDHPKDDIAGAQQAGMRAIWYNPQGKAWDADRLPDAEIHNLSQLPEVLARWAEGHHHHHH | soluble
12 | MKTLTTERLILRLVSVDDAPFILELYNHPDFYRFVGDKQMRTDYEAVRYIKENMLRMEEKKGVSLLVVEDKQTKQPLGICGLVKRDTLNAYDIGYGFLPSAYGQGFAIEAAKAVIEYAKQAMQLSQLLAITNNDNIRSISLLKKLGFEFEHVEQQYDNGRTLELYTLQL | not soluble
13 | MGSDKIHHHHHHMSLRDKIEELKKIEKEIEQGGGPEKVEKQHRAGKLTAWERLELLLDPGTFVEIDKFVEHRNTYFGLDKVKLPRDGVITGVGEINGRKVAVFSQDFTVMGGSLGEMHAKKIVKLLDLALKMGIPVIGINDSGGARIQEGVDALAGYGEIFLRNTLASGVVPQITVIAGPCAGGAVYSPALTDFIVMVDQTARMFITGPNVIKAVTGEEISQEDLGGAMVHNQKSGNAHFLADNDEKAMSLVRTLLSYLPSNNAEEPPVEDPDTSLETPEDILDILPDNPNKGYDVRDVIKRVVDHGEFFEVQPYFAKNIVIGFARIQGKTVGIVANQPSVLAGVLDIDSSDKAARFIRFLDAFNIPILTFVDTPGYLPGVAQEHGGIIRHGAKLLYAYSEATVPKITVILRKAYGGAYIAMGSKHLGADMVLAWPSAEIAVMGPEGAANIIFKREIEASSNPEETRRKLIEEYKQQFANPYIAASRGYVDMVIDPRETRKYIMRALEVCETKVEYRPKKKHGNIPL | soluble
14 | MSLKVAKDLVVSLAYQVRTEDGVLVDESPVSAPLDYLHGHGSLISGLETALEGHEVGDKFDVAVGANDAYGQYDENLVQRVPKDVFMGVDELQVGMRFLAETDQGPVPVEITAVEDDHVVVDGNHMLAGQNLKFNVEVVAIREATEEELAHGHVHGAHDHHHDHDHDGCCGGHGHDHGHEHGGEGCCGGKGNGGCGCEGGSHHHHHH | soluble
15 | GMKNVTKASIDDLDSIVHIDIDVIGNDSRRNYIKHSIDEGRCVIVKEDNSISGFLTYDTNFFDCTFLSLIIVSPTKRRRGYASSLLSYMLSHSPTQKIFSSTNESNESMQKVFNANGFIRSGIVENLDEGDPEIIFYTKKLRA | soluble
16 | MELEDANVTKKVELRPLIGLTRGLPPTDLETITIDAIRTHRRLVEKADELFQALPETYKTGQACGGPQHIRYIEASIEMHAQMSALNTLYSILGFIPKVVVN | soluble
17 | MVHIKKGELTQEEKELLEVIGKGTVQEAGTLLSSKNVRVNCLDENGMTPLMHAAYKGKLDMCKLLLRHGADVNCHQHEHGYTALMFAALSGNKDITWVMLEAGAETDVVNSVGRTAAQMAAFVGQHDCVTIINNFFPRERLDYYTKPQGLDKEPKLPPKLAGPLHKIITTTNLHPVKIVMLVNENPLLTEEAALNKCYRVMDLICEKCMKQRDMNEVLAMKMHYISCIFQKCINFLKDGENKLDTLIKSLLKGRASDGFPVYQEKIIRESIRKFPYCEATLLQQLVRSIAPVEIGSDPTAFSVLTQAITGQVGFVDVEFCTTCGEKGASKRCSVCKMVIYCDQTCQKTHWFTHKKICKNLKDIYEKQQLEAAKEKRQEENHGKLDVNSNCVNEEQPEAEVGISQKDSNPEDSGEGKKESLESEAELEGLQDAPAGPQVSEE | soluble
